From the Human Domainome abundance scans (Beltran et al. 2025)
± gives the uncertainty stated by the source.

Assay: abundance fitness (aPCA) (normalised: wild type 0, dead -1); higher = more abundant; growth selection in yeast, the domain comes from the species named
Conditions: Homo sapiens

Substance	abundance fitness
BAG family molecular chaperone regulator 3 A13Y, O95817	-0.047 ± 0.46
SAFB-like transcription modulator K20N, Q9NWH9	-0.333 ± 0.17
BAG family molecular chaperone regulator 3 Q33N, O95817	-0.357 ± 0.29
SAFB-like transcription modulator L30Y, Q9NWH9	-1 ± 0.13
SAFB-like transcription modulator K53A, Q9NWH9	0.006 ± 0.071
SAFB-like transcription modulator R26L, Q9NWH9	-0.131 ± 0.078
BAG family molecular chaperone regulator 3 S56P, O95817	-0.572 ± 0.27
BAG family molecular chaperone regulator 3 P21V, O95817	0.443 ± 0.063
BAG family molecular chaperone regulator 3 R53H, O95817	-0.611 ± 0.3
BAG family molecular chaperone regulator 3 H42I, O95817	-0.625 ± 0.29
SAFB-like transcription modulator E59N, Q9NWH9	-0.275 ± 0.056
SAFB-like transcription modulator V27F, Q9NWH9	-0.585 ± 0.15
BAG family molecular chaperone regulator 3 A13W, O95817	-0.774 ± 0.32
SAFB-like transcription modulator K45F, Q9NWH9	-0.55 ± 0.037
SAFB-like transcription modulator P63T, Q9NWH9	-0.053 ± 0.065
BAG family molecular chaperone regulator 3 R19H, O95817	-0.399 ± 0.18
BAG family molecular chaperone regulator 3 P21G, O95817	0.43 ± 0.057
SAFB-like transcription modulator L68V, Q9NWH9	-0.075 ± 0.063
SAFB-like transcription modulator V47K, Q9NWH9	0.003 ± 0.063
SAFB-like transcription modulator N65F, Q9NWH9	-0.101 ± 0.065
BAG family molecular chaperone regulator 3 L22G, O95817	-0.144 ± 0.13
BAG family molecular chaperone regulator 3 R53P, O95817	-0.653 ± 0.083
BAG family molecular chaperone regulator 3 N43T, O95817	-0.416 ± 0.085
SAFB-like transcription modulator I49G, Q9NWH9	-0.406 ± 0.049

Substance	abundance fitness
BAG family molecular chaperone regulator 3 E57W, O95817	-0.423 ± 0.29
BAG family molecular chaperone regulator 3 E27N, O95817	-0.889 ± 0.22
SAFB-like transcription modulator R37C, Q9NWH9	-0.921 ± 0.052
BAG family molecular chaperone regulator 3 V40H, O95817	-0.082 ± 0.17
BAG family molecular chaperone regulator 3 N50R, O95817	-0.034 ± 0.13
SAFB-like transcription modulator N65K, Q9NWH9	-0.103 ± 0.038
BAG family molecular chaperone regulator 3 K29T, O95817	-0.212 ± 0.16
BAG family molecular chaperone regulator 3 G35D, O95817	0.202 ± 0.13
BAG family molecular chaperone regulator 3 V54D, O95817	-0.08 ± 0.23
SAFB-like transcription modulator R37E, Q9NWH9	-0.694 ± 0.036
BAG family molecular chaperone regulator 3 S14Q, O95817	0.677 ± 0.15
BAG family molecular chaperone regulator 3 G58M, O95817	0.512 ± 0.17
BAG family molecular chaperone regulator 3 G25S, O95817	-0.726 ± 0.19
SAFB-like transcription modulator N65C, Q9NWH9	-0.126 ± 0.074
BAG family molecular chaperone regulator 3 N16F, O95817	-0.219 ± 0.24
SAFB-like transcription modulator T42R, Q9NWH9	0.057 ± 0.084
SAFB-like transcription modulator D29E, Q9NWH9	-0.5 ± 0.13
BAG family molecular chaperone regulator 3 I30L, O95817	0.249 ± 0.091
SAFB-like transcription modulator V47T, Q9NWH9	0.089 ± 0.064
SAFB-like transcription modulator I66E, Q9NWH9	-0.272 ± 0.061
BAG family molecular chaperone regulator 3 T34A, O95817	0.131 ± 0.12
SAFB-like transcription modulator T23R, Q9NWH9	-0.178 ± 0.033
BAG family molecular chaperone regulator 3 P32F, O95817	-0.511 ± 0.47
SAFB-like transcription modulator T46F, Q9NWH9	-0.358 ± 0.088

Substance	abundance fitness
BAG family molecular chaperone regulator 3 Q33A, O95817	0.032 ± 0.15
SAFB-like transcription modulator K35G, Q9NWH9	0.023 ± 0.051
BAG family molecular chaperone regulator 3 G17A, O95817	0.55 ± 0.09
SAFB-like transcription modulator L48Y, Q9NWH9	-0.788 ± 0.043
SAFB-like transcription modulator L25K, Q9NWH9	-0.407 ± 0.11
BAG family molecular chaperone regulator 3 R19P, O95817	-0.253 ± 0.23
SAFB-like transcription modulator I22W, Q9NWH9	-0.94 ± 0.085
BAG family molecular chaperone regulator 3 W26M, O95817	-0.721 ± 0.2
SAFB-like transcription modulator E58Q, Q9NWH9	-0.014 ± 0.077
BAG family molecular chaperone regulator 3 P55F, O95817	-0.012 ± 0.13
SAFB-like transcription modulator D64V, Q9NWH9	-0.317 ± 0.045
SAFB-like transcription modulator V44P, Q9NWH9	0.014 ± 0.049
SAFB-like transcription modulator L25W, Q9NWH9	-0.219 ± 0.055
BAG family molecular chaperone regulator 3 P23G, O95817	-0.622 ± 0.18
BAG family molecular chaperone regulator 3 R53M, O95817	-0.296 ± 0.25
BAG family molecular chaperone regulator 3 D31T, O95817	-0.56 ± 0.18
BAG family molecular chaperone regulator 3 V40M, O95817	0.03 ± 0.16
BAG family molecular chaperone regulator 3 K29E, O95817	-0.791 ± 0.42
SAFB-like transcription modulator S32G, Q9NWH9	-0.077 ± 0.051
BAG family molecular chaperone regulator 3 V54M, O95817	0.19 ± 0.22
BAG family molecular chaperone regulator 3 R19W, O95817	-0.342 ± 0.073
SAFB-like transcription modulator G61H, Q9NWH9	-0.16 ± 0.049
SAFB-like transcription modulator I66G, Q9NWH9	-0.517 ± 0.085
SAFB-like transcription modulator E57T, Q9NWH9	-0.122 ± 0.079

Substance	abundance fitness
BAG family molecular chaperone regulator 3 D41I, O95817	-0.622 ± 0.45
SAFB-like transcription modulator I22L, Q9NWH9	-0.115 ± 0.061
SAFB-like transcription modulator L48H, Q9NWH9	-0.52 ± 0.059
BAG family molecular chaperone regulator 3 S14C, O95817	-0.542 ± 0.42
SAFB-like transcription modulator I56A, Q9NWH9	-0.829 ± 0.1
BAG family molecular chaperone regulator 3 P37G, O95817	0.024 ± 0.084
BAG family molecular chaperone regulator 3 S14T, O95817	-0.084 ± 0.19
BAG family molecular chaperone regulator 3 G25C, O95817	-0.74 ± 0.17
SAFB-like transcription modulator E33M, Q9NWH9	-0.007 ± 0.083
BAG family molecular chaperone regulator 3 P55T, O95817	-0.427 ± 0.23
SAFB-like transcription modulator V44T, Q9NWH9	-0.008 ± 0.06
SAFB-like transcription modulator I49V, Q9NWH9	-0.079 ± 0.048
SAFB-like transcription modulator G61C, Q9NWH9	-0.164 ± 0.064
SAFB-like transcription modulator L34D, Q9NWH9	-0.414 ± 0.12
SAFB-like transcription modulator L68W, Q9NWH9	-0.181 ± 0.052
BAG family molecular chaperone regulator 3 P21H, O95817	-0.103 ± 0.26
BAG family molecular chaperone regulator 3 W36V, O95817	1.02 ± 0.24
BAG family molecular chaperone regulator 3 P37V, O95817	0.358 ± 0.079
BAG family molecular chaperone regulator 3 S44D, O95817	-0.557 ± 0.47
BAG family molecular chaperone regulator 3 D18T, O95817	0.03 ± 0.11
BAG family molecular chaperone regulator 3 I28Y, O95817	-0.19 ± 0.3
SAFB-like transcription modulator G60Q, Q9NWH9	-0.181 ± 0.042
SAFB-like transcription modulator G60C, Q9NWH9	-0.258 ± 0.036
SAFB-like transcription modulator E33C, Q9NWH9	-0.68 ± 0.1
